Data on 7 molecules can be found in US20220119522A1 (DENALI THERAPEUTICS, published 2022).

T1: His-tagged human TREM2 ECD (human, UniProt Q9NZC2 19-172)
T1 construct: Biacore and HDX say only recombinant human TREM2 (ECD); also called recombinant human TREM2; hTREM2
T1 sequence: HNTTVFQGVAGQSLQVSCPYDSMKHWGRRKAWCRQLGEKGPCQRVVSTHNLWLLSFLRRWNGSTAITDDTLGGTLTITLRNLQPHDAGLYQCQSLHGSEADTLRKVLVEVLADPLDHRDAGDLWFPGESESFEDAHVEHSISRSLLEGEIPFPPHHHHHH

T2: human TREM2 on the cell surface (human, UniProt Q9NZC2 19-230)
T2 construct: also called surface TREM2; TREM2 expressed in HEK293-H6 cells
T2 sequence: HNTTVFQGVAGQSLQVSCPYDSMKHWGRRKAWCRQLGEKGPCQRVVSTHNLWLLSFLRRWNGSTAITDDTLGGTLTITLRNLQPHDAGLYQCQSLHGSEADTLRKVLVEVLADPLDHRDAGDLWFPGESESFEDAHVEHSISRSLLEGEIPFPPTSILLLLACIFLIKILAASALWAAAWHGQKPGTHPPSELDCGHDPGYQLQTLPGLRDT

T3: human soluble TREM2 (sTREM2) (human, UniProt Q9NZC2 19-157, limits assumed)
T3 construct: Native shed sTREM2; also called sTREM2 in Human CSF; sTREM2 in huTrem2 KI mouse plasma
T3 sequence: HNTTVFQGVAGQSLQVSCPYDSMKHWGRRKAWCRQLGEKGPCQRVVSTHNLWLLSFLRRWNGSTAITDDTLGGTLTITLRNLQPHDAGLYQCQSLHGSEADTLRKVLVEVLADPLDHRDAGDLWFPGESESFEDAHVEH

B1: CL0020123-5 (antibody, V domains shown)
VH: QVQLVQSGAEVKKPGASVKVSCKASGFSIEDFYIHWVRQAPGQGLEWMGWIDPEQGESKYAPKFQGRATITADTSTSTAYMELSSLRSEDTAVYYCHADHGNYGSTMDYWGQGTLVTVSS
VL: DIQMTQSPSSLSASVGDRVTITCHASQHINVWLSWYQQKPGKAPKLLIYKASNLHTGVPSRFSGSGSGTDFTLTISSLQPEDFATYYCQQGQTYPRTFGQGTKVEIK
notes: Humanized variant of CL0020123 (hVH QGES/2 m, Vk graft); also called Clone CL0020123-5
B2: CL0020123-7 (antibody, V domains shown)
VH: B1 VH with Q55N, A68V
VL: B1 VL
notes: Humanized variant of CL0020123 (hVH NGES/1 m, Vk graft); also called Clone CL0020123-7
B3: CL0020188-4 (antibody, V domains shown)
VH: EVQLVESGGGLVQPGGSLRLSCAGSGFTFTDFYMSWVRQAPGKGPEWLSVIRNKANGYTAGYNPSVKGRFTISRDNSKNTLYLQMNSLRAEDTAVYYCARLTYGFDYWGQGTLVTVSS
VL: DIVMTQTPLSLPVTPGEPASISCQSSKSLLHSTGKTYLNWYLQKPGQSPQLLIYWMSTRASGVPDRFSGSGSGTDFTLKISRVEAEDVGVYYCQQFLEYPFTFGQGTKVEIK
notes: Humanized variant of CL0020188 (hVH NG/3 m, hVL TG/graft); also called Clone CL0020188-4
B4: CL0020188-7 (antibody, V domains shown)
VH: B3 VH with G24A, P45L, L48V, G57A
VL: B3 VL
notes: Humanized variant of CL0020188 (hVH NA/graft, hVL TG/graft); also called Clone CL0020188-7
B5: Reference antibody #3 (antibody, V domains shown)
VH: QVQLVQSGAEVKKPGASVKVSCKASGYAFSSQWMNWVRQAPGQRLEWIGRIYPGGGDTNYAGKFQGRVTITADTSASTAYMELSSLRSEDTAVYYCARLLRNQPGESYAMDYWGQGTLVTVSS
VL: DVVMTQSPDSLAVSLGERATINCRSSQSLVHSNRYTYLHWYQQKPGQSPKLLIYKVSNRFSGVPDRFSGSGSGTDFTLKISRVEAEDVGVYYCSQSTRVPYTFGQGTKLEIK
B6: Reference antibody #1 (antibody, V domains shown)
VH: EVQLVQSGAEVKKPGESLKISCKGSGHSFTNYWIAWVRQMPGKGLEWMGIIYPGDSDTRYSPSFQGQVTISADKSISTAYLQWSSLKASDTAVYFCARQRTFYYDSSGYFDYWGQGTLVTVSS
VL: DIQMTQSPSSVSASVGDRVTITCRASQGISNWLAWYQQKPGKAPKLLIYAASSLQVGVPLRFSGSGSGTDFTLTISSLQPEDFATYYCQQADSFPRNFGQGTKLEIK
B7: Reference antibody #2 (antibody, V domains shown)
VH: B6 VH with H27Y, N31S, V93M, G108D
VL: B6 VL with N31S, V56N, L60S, Y87F, N97T

The term Kd denotes a measure of binding affinity in units of concentration. In general, EC50 refers to the concentration at which the effect is half-maximal.

Residue numbers refer to the chain shown, from its start.

The target of the first experiment is T1, His-tagged human TREM2 ECD. Nature of the experiment: SPR (Biacore). The procedure:
(§1) Surface plasmon resonance (Biacore™ 8K instrument) was used to measure anti-TREM2 antibody affinities for human and cynomolgus TREM2 ECD. Anti-TREM2 antibodies were captured using Human Fab Capture Kit (GE Healthcare Life Sciences, Catalog No. 28958325) on a Biacore Series S CM5 sensor chip (GE Healthcare Life Sciences, Catalog No. 29149604). Serial 3-fold dilutions of recombinant human or cynomolgus TREM2 were injected at a flow rate of 30 μL/min. Antibody binding was monitored for 300 seconds, followed by monitoring of antibody dissociation for 600+seconds in HBS-EP+ running buffer (GE Healthcare Life Sciences, Catalog No. BR100669). The binding response was corrected by subtracting the RU value from a blank flow cell. A 1:1 Languir model of simultaneous fitting of kₒₙ and koff was used for kinetics analysis.
(§2) Sequence optimization was conducted by searching within CDR sequences for residues that are susceptible to chemical modification (e.g., asparagine deamidation motifs (NG), aspartic acid isomerization motifs (DS), and potential oxidation residues (tryptophan (W) and methionine (M)) and making amino acid substitutions with conservative and germline residues to remove such sequence liabilities. Humanized and sequence-optimized variants of anti-TREM2 antibodies were then analyzed for binding kinetics using Biacore and dose-titrated cell binding to HEK293-H6 cells (see, Example 1 for representative protocols).
(SPR reads the build-up and loss of mass on a sensor chip optically.)
For the molecule B1, the Kd was 0.44 nM.

B2 returned a Kd of 0.15 nM.

For B3, the Kd is 4.8 nM.

The molecule B4 yielded a Kd of 10 nM.

The target in another experiment is T1, His-tagged human TREM2 ECD. Put plainly: SPR (Biacore). This is another data set of the same source. The procedure:
as §1, with “analysis. […]” for “analysis.”
In turn, B1 showed a Kd of 0.63 nM.

Take B2: binding was characterised by a dissociation constant (Kd) of 0.08 nM.

The molecule B3 displayed a Kd of 1.4 nM.

Molecule B4 showed a dissociation constant Kd of 3.3 nM.

B5: the Kd is 8.7 nM.

In turn, B6 had a Kd of 5.9 nM.

As to B7, the Kd came out at 4.3 nM.

A further experiment has as its target T4, recombinant cynomolgus TREM2 ECD (cynomolgus).
T4 construct: extracellular domain; also called cyno TREM2
Put plainly: SPR (Biacore). Here is the method: as §1, with “analysis. […]” for “analysis.”
Regarding B1, the Kd is 9.3 nM.

In the case of B2, the Kd was 9.4 nM.

Consider B3, for which the Kd was 1.5 nM.

As to B4, the Kd turned out to be 2.8 nM.

As to B5, the Kd came to 9.2 nM.

For the molecule B6, the Kd worked out at 14 nM.

As to B7, the Kd came out at 9.2 nM.

Another experiment addresses T2, human TREM2 on the cell surface. Nature of the experiment: flow cytometry, dose-titrated binding to HEK293-H6 cells. The procedure:
After incubation, the cells were centrifuged and washed in FACS buffer (PBS+0.5% BSA) twice. Mixed cells were resuspended in FACS buffer with human Trustain FcX solution (Biolegend, Catalog No. 422302) at a density of 10⁶/mL per cell line. The mixed cell lines were seeded at 200,000 cells per well in a 96-well round-bottom plate and incubated for 20 minutes at room temperature. After incubation, the cells were centrifuged and incubated with anti-TREM2 antibodies of about 0-200 nM dose titration for 45 minutes on ice. After incubation, the cells were centrifuged and washed with FACS buffer three times. […] After incubation, the cells were washed with FACS buffer three times, resuspended in 100 μL of FACS buffer, and analyzed by flow cytometry (BD FACSCanto II, San Jose, Calif.), for which 30,000 events were obtained for each sample. Mean fluorescence intensity per cells were calculated by FlowJo software and used for generating dose response binding curve.
as §2
In general terms: A flow cytometer gives signals particle by particle.
With B1, the EC50 was found to be 0.37 nM.

B2 returned an EC50 of 0.19 nM.

With B3, the EC50 was 0.44 nM. Against the preceding molecule, the EC50 is about 2.3-fold higher.

On to B4, for which the concentration for a half-maximal effect (EC50) was found to be 0.68 nM. Against the preceding molecule, the EC50 is about 1.5-fold higher.

Another experiment deals with T3, human soluble TREM2 (sTREM2). Put plainly: MSD assay: sTREM2 captured from healthy human CSF, sulfo-tagged antibody titrated. The procedure: (§3) The affinity of anti-TREM2 antibodies to human TREM2 and cynomolgus TREM2 were measured by Biacore (described in Example 1). The potency of anti-TREM2 antibodies were measured in healthy human volunteer CSF samples (Innovative Research) and healthy cynomolgus monkey CSF samples (Worldwide Primates), by MSD assay. The potency of each antibody was determined by its EC50. Briefly, MSD GOLD 96-well small spot streptavidin plates (MSD, Cat. No. L45SA) coated with capture antibody (biotinylated goat anti-human TREM2, R&D Systems, Cat. No. BAF1828) was incubated with biofluid samples diluted 1:3 in Assay Buffer (25% (v/v) MSD Blocker A (MSD, Cat. No. R93BA-A), 75% (v/v) TBST) for one hour at room temperature. After rinsing the wells with TBST, sulfo-tagged anti-TREM2 antibody was added in a serial dilution (4×dilution over 11 points) to the wells of the plate and incubated for one hour at room temperature. The wells were washed with TBST, and MSD Read Buffer (MSD, Cat. No. R92TC-3) was added to the wells. Signal from the samples were measured using an MSD Meso Sector 5600 device. EC50 values for each antibody was determined by four-parameter variable slope non-linear regression. The variable regions of reference antibody #1 are represented by SEQ ID NOS:344 and 345. The variable regions of reference antibody #2 are represented by SEQ ID NOS:346 and 347. The variable regions of reference antibody #3 are represented by SEQ ID NOS:348 and 349.
In turn, B1 yielded an EC50 of 1 nM.

The molecule B2 came in with an EC50 of 0.54 nM.

Molecule B3 came in with an EC50 of 0.29 nM.

Turning to B4, the EC50 was found to be 0.75 nM.

Regarding B5, the response was half-maximal at 7.25 nM (EC50).

Take B6: the EC50 came to 32.6 nM.

B7 gave an EC50 of 7.4 nM.

The target in another experiment is T5, cynomolgus soluble TREM2 (sTREM2) (cynomolgus).
T5 construct: also called sTREM2 in Cyno CSF
Put plainly: MSD assay: sTREM2 captured from healthy cynomolgus CSF, sulfo-tagged antibody titrated. Here is the method:
as §3
The molecule B1 returned an EC50 of 49.4 nM. In other words, the double-digit nanomolar range.

In turn, B2 displayed an EC50 of 16.9 nM. This EC50 lies about 2.9-fold lower than the previous one.

For B3, a half-maximal response (EC50) required 0.28 nM.

In the case of B4, the EC50 is 0.72 nM.

In the case of B5, the EC50 came out at 33.7 nM. Compared with the last molecule, the EC50 is about 47-fold higher.

B6: a half-maximal effect (EC50) was put at 81.6 nM.

In turn, B7 returned an EC50 of 6.5 nM. This EC50 lies about 13-fold lower than the previous one.
